Source: the Immune Epitope Database (IEDB)

Key:
HLA-C*04:01 = assay: IEDB peptide-MHC binding, purified MHC/direct/fluorescence; filed as Kd, often an IC50 or EC50 that approximates it; ≥ and ≤ were set here for values at or beyond the usual limits of such assays
HLA-A*24:03 = assay: as above
HLA-C*14:02 = assay: as above; conditions: source organism: Vibrio vulnificus YJ016
HLA-A*30:01 [1] = assay: IEDB peptide-MHC binding, purified MHC/competitive/fluorescence; filed as Kd, often an IC50 or EC50 that approximates it; ≥ and ≤ were set here for values at or beyond the usual limits of such assays; conditions: source organism: Human immunodeficiency virus 1
HLA-A*80:01 = assay: IEDB peptide-MHC binding, purified MHC/direct/fluorescence; filed as Kd, often an IC50 or EC50 that approximates it; ≥ and ≤ were set here for values at or beyond the usual limits of such assays; conditions: source organism: Human immunodeficiency virus 1
HLA-A*29:02 [2] = assay: IEDB peptide-MHC binding, purified MHC/competitive/fluorescence; filed as Kd, often an IC50 or EC50 that approximates it; ≥ and ≤ were set here for values at or beyond the usual limits of such assays; conditions: source organism: Human immunodeficiency virus type 1 BH10
HLA-A*01:01 [3] = assay: as above; conditions: source organism: Human immunodeficiency virus type 1 BH10
HLA-A*69:01 [4] = assay: IEDB peptide-MHC binding, purified MHC/direct/fluorescence; filed as Kd, often an IC50 or EC50 that approximates it; ≥ and ≤ were set here for values at or beyond the usual limits of such assays
HLA-C*03:03 = assay: as above
HLA-C*08:02 = assay: as above
HLA-C*12:03 = assay: as above; conditions: source organism: Mycobacterium tuberculosis variant bovis BCG str. Pasteur 1173P2
HLA-B*40:01 = assay: as above
HLA-B*15:01 [5] = assay: as above
HLA-A*26:01 [6] = assay: as above
HLA-A*11:01 = assay: as above
HLA-A*02:01 [7] = assay: as above
HLA-B*58:01 = assay: as above
HLA-A*31:01 = assay: as above
HLA-A*03:01 = assay: as above
HLA-B*27:05 = assay: as above
HLA-A*01:01 [8] = assay: as above
HLA-A*02:50 = assay: IEDB peptide-MHC binding, purified MHC/competitive/fluorescence; filed as Kd, often an IC50 or EC50 that approximates it; ≥ and ≤ were set here for values at or beyond the usual limits of such assays
HLA-A*29:02 [9] = assay: IEDB peptide-MHC binding, purified MHC/direct/fluorescence; filed as Kd, often an IC50 or EC50 that approximates it; ≥ and ≤ were set here for values at or beyond the usual limits of such assays; conditions: source organism: Zaire ebolavirus
HLA-A*68:02 = assay: as above; conditions: source organism: Zaire ebolavirus
HLA-A*23:01 = assay: as above
HLA-A*02:19 = assay: as above; conditions: source organism: Zaire ebolavirus
HLA-A*02:03 = assay: as above; conditions: source organism: Zaire ebolavirus
HLA-A*02:12 = assay: as above
HLA-A*02:16 = assay: as above; conditions: source organism: Zaire ebolavirus
HLA-A*02:11 = assay: as above; conditions: source organism: Zaire ebolavirus
HLA-B*15:01 [10] = assay: IEDB peptide-MHC binding, purified MHC/competitive/fluorescence; filed as Kd, often an IC50 or EC50 that approximates it; ≥ and ≤ were set here for values at or beyond the usual limits of such assays; conditions: source organism: Zaire ebolavirus
HLA-B*51:01 = assay: as above; conditions: source organism: Zaire ebolavirus
HLA-A*26:01 [11] = assay: as above; conditions: source organism: Zaire ebolavirus
HLA-B*46:01 = assay: as above; conditions: source organism: Zaire ebolavirus
HLA-B*27:03 = assay: as above; conditions: source organism: Zaire ebolavirus
HLA-A*02:01 [12] = assay: as above; conditions: source organism: Zaire ebolavirus
HLA-A*69:01 [13] = assay: as above; conditions: source organism: Zaire ebolavirus
HLA-B*18:01 = assay: as above; conditions: source organism: Zaire ebolavirus
HLA-B*57:01 = assay: as above; conditions: source organism: Zaire ebolavirus
HLA-B*39:01 = assay: as above; conditions: source organism: Zaire ebolavirus
HLA-C*05:01 = assay: IEDB peptide-MHC binding, purified MHC/direct/fluorescence; filed as Kd, often an IC50 or EC50 that approximates it; ≥ and ≤ were set here for values at or beyond the usual limits of such assays; conditions: source organism: Brucella abortus S19
HLA-B*44:02 = assay: as above; conditions: source organism: Vibrio cholerae
HLA-B*07:02 = assay: as above; conditions: source organism: Vibrio cholerae
HLA-B*08:01 [14] = assay: as above; conditions: source organism: Vibrio cholerae
HLA-B*08:01 [15] = assay: IEDB peptide-MHC binding, purified MHC/competitive/fluorescence; filed as Kd, often an IC50 or EC50 that approximates it; ≥ and ≤ were set here for values at or beyond the usual limits of such assays; conditions: source organism: Influenza A virus (A/Harbin/1/1988(H1N2))
HLA-A*30:01 [16] = assay: IEDB peptide-MHC binding, purified MHC/direct/fluorescence; filed as Kd, often an IC50 or EC50 that approximates it; ≥ and ≤ were set here for values at or beyond the usual limits of such assays; conditions: source organism: Kurkino virus
[17] = source organism: Mycobacterium tuberculosis variant bovis BCG str. Pasteur 1173P2
[18] = source organism: Bacillus anthracis str. A0193
[19] = source organism: Haemophilus influenzae
[20] = source organism: Zaire ebolavirus
[21] = source organism: Brucella abortus 2308
[22] = source organism: Vibrio cholerae
[23] = source organism: Orthohantavirus dobravaense

Sequence: AYFLEAQEM
- Kd (HLA-C*04:01; source organism: Vibrio vulnificus YJ016): ≥ 20 µM
- Kd (HLA-A*24:03; source organism: Vibrio vulnificus): 0.0036 µM
- Kd (HLA-C*14:02): ≤ 0.001 µM

Sequence: EELRSLYNTV
- Kd (HLA-A*30:01 [1]): ≥ 20 µM

Sequence: FNCGGEFFY
- Kd (HLA-A*80:01): 0.0526 µM
- Kd (HLA-A*29:02 [2]): ≤ 0.0001 µM
- Kd (HLA-A*01:01 [3]): 0.0565 µM

Sequence: FLADYGWRL
- Kd (HLA-A*69:01 [4]; source organism: Mycobacterium tuberculosis): 0.663 µM
- Kd (HLA-C*03:03; [17]): 0.026 µM
- Kd (HLA-C*08:02; [17]): 0.057 µM
- Kd (HLA-C*12:03): 0.413 µM

Sequence: YAIYTLGEM
- Kd (HLA-C*04:01; [18]): ≥ 20 µM
- Kd (HLA-C*03:03; [18]): ≤ 0.001 µM

Sequence: FLADYRGKT
- Kd (HLA-B*40:01; [19]): ≥ 20 µM
- Kd (HLA-B*15:01 [5]; [19]): ≥ 20 µM
- Kd (HLA-A*26:01 [6]; [19]): ≥ 20 µM
- Kd (HLA-A*11:01; [19]): ≥ 20 µM
- Kd (HLA-A*02:01 [7]; [19]): 1.36 µM
- Kd (HLA-B*58:01; [19]): ≥ 20 µM
- Kd (HLA-A*31:01; [19]): ≥ 20 µM
- Kd (HLA-A*69:01 [4]; [19]): ≥ 20 µM
- Kd (HLA-A*03:01; [19]): ≥ 20 µM
- Kd (HLA-B*27:05; [19]): ≥ 20 µM
- Kd (HLA-A*01:01 [8]; [19]): ≥ 20 µM
- Kd (HLA-A*02:50; source organism: Haemophilus influenzae R2846): 0.0019 µM

Sequence: LTDRELLLL
- Kd (HLA-A*29:02 [9]): ≥ 20 µM
- Kd (HLA-A*68:02): ≥ 20 µM
- Kd (HLA-A*23:01; [20]): ≥ 20 µM
- Kd (HLA-A*02:19): ≥ 20 µM
- Kd (HLA-A*02:03): ≥ 20 µM
- Kd (HLA-A*02:12; [20]): ≥ 20 µM
- Kd (HLA-A*24:03; [20]): ≥ 20 µM
- Kd (HLA-A*02:16): ≥ 20 µM
- Kd (HLA-A*03:01; [20]): ≥ 20 µM
- Kd (HLA-A*02:11): ≥ 20 µM
- Kd (HLA-A*01:01 [8]; source organism: Sudan ebolavirus - Uganda (2000)): 0.255 µM
- Kd (HLA-B*15:01 [10]): ≥ 20 µM
- Kd (HLA-B*51:01): ≥ 20 µM
- Kd (HLA-A*26:01 [11]): ≥ 20 µM
- Kd (HLA-B*46:01): ≥ 20 µM
- Kd (HLA-B*27:03): ≥ 20 µM
- Kd (HLA-A*02:01 [12]): ≥ 20 µM
- Kd (HLA-A*69:01 [13]): ≥ 20 µM
- Kd (HLA-B*18:01): ≥ 20 µM
- Kd (HLA-B*57:01): ≥ 20 µM
- Kd (HLA-B*39:01): ≥ 20 µM

Sequence: YVDIIGLSV
- Kd (HLA-C*05:01): 0.002 µM
- Kd (HLA-A*02:12; source organism: Brucella suis 1330): 0.005 µM
- Kd (HLA-A*02:01 [7]; [21]): 0.056 µM
- Kd (HLA-A*69:01 [4]; [21]): 0.0085 µM
- Kd (HLA-A*02:50; source organism: Brucella abortus S19): 0.0091 µM

Sequence: ALYWALMES
- Kd (HLA-B*40:01; [22]): ≥ 20 µM
- Kd (HLA-B*15:01 [5]; [22]): ≥ 20 µM
- Kd (HLA-B*44:02): ≥ 20 µM
- Kd (HLA-A*26:01 [6]; [22]): ≥ 20 µM
- Kd (HLA-A*11:01; [22]): ≥ 20 µM
- Kd (HLA-A*02:01 [7]; [22]): 0.021 µM
- Kd (HLA-A*24:03; [22]): ≥ 20 µM
- Kd (HLA-B*58:01; [22]): ≥ 20 µM
- Kd (HLA-A*31:01; [22]): ≥ 20 µM
- Kd (HLA-A*69:01 [4]; [22]): ≥ 20 µM
- Kd (HLA-B*07:02): ≥ 20 µM
- Kd (HLA-A*03:01; [22]): ≥ 20 µM
- Kd (HLA-B*08:01 [14]): ≥ 20 µM
- Kd (HLA-B*27:05; [22]): ≥ 20 µM
- Kd (HLA-A*01:01 [8]; [22]): ≥ 20 µM
- Kd (HLA-A*02:50; source organism: Vibrio cholerae 2740-80): 0.0002 µM

Sequence: IAPWYAFAL
- Kd (HLA-C*08:02; source organism: Influenza A virus (A/Harbin/1/1988(H1N2))): 3.34 µM
- Kd (HLA-B*08:01 [15]): 7.56 µM

Sequence: YYTEDQGQF
- Kd (HLA-A*30:01 [16]): ≥ 20 µM
- Kd (HLA-A*23:01; [23]): 0.0135 µM
- Kd (HLA-C*04:01; source organism: Kurkino virus): ≥ 20 µM
- Kd (HLA-A*24:03; [23]): 0.0014 µM
